The text below walks through data of patent publication US20250346668A1.

Test [1] deals with Human CD3e/g protein (human) (UniProt P07766). Description: ELISA, coated hCD3e/g. In general terms: In an ELISA, binding on a coated surface is turned into a signal by an enzyme label.
The target in test [2] is Cynomolgus monkey CD3e/g protein (cynomolgus monkey). As to the kind of experiment: ELISA, coated cyno CD3e/g.
The target of test [3] is human CD3e/d protein (Sinobiological, CAT: CT038-H2508H-B) (human) (UniProt P07766). As to the kind of experiment: ELISA, coated hCD3e/d.

Turning to HIT3a (antibody), in test [1], the EC50 – broadly, the concentration that produces a half-maximal response – amounted to 4.2 nM; the OD450 nm at 0.000853 nM is 0.07 OD450 nm; the OD450 nm at 0.0043 nM worked out at 0.07 OD450 nm; the OD450 nm at 0.02 nM was found to be 0.08 OD450 nm. For the same substance, in test [1], the OD450 nm at 0.11 nM turned out to be 0.12 OD450 nm, the OD450 nm at 0.53 nM worked out at 0.31 OD450 nm, the OD450 nm at 2.67 nM was found to be 0.59 OD450 nm and the OD450 nm at 13.3 nM turned out to be 0.94 OD450 nm. This substance came in with an OD450 nm at 66.7 nM in test [1] of 1.22 OD450 nm. In test [2], this substance registered an OD450 nm at 0.000853 nM of 0.04 OD450 nm, an OD450 nm at 0.0043 nM of 0.04 OD450 nm, an OD450 nm at 0.02 nM of 0.04 OD450 nm and an OD450 nm at 0.11 nM of 0.04 OD450 nm. In test [2], this substance yielded an OD450 nm at 0.53 nM of 0.04 OD450 nm, an OD450 nm at 2.67 nM of 0.04 OD450 nm, an OD450 nm at 13.3 nM of 0.04 OD450 nm and an OD450 nm at 66.7 nM of 0.04 OD450 nm.

As for OKT3 (antibody), in test [1], the EC50 came out at 2.95 nM, the OD450 nm at 0.000853 nM was found to be 0.07 OD450 nm, the OD450 nm at 0.0043 nM worked out at 0.08 OD450 nm and the OD450 nm at 0.02 nM stood at 0.09 OD450 nm. In test [1], this substance gave an OD450 nm at 0.11 nM of 0.17 OD450 nm, an OD450 nm at 0.53 nM of 0.47 OD450 nm, an OD450 nm at 2.67 nM of 0.8 OD450 nm and an OD450 nm at 13.3 nM of 1.21 OD450 nm. For the same substance, the OD450 nm at 66.7 nM in test [1] stood at 1.53 OD450 nm. In test [2], this substance returned an OD450 nm at 0.000853 nM of 0.04 OD450 nm, an OD450 nm at 0.0043 nM of 0.04 OD450 nm, an OD450 nm at 0.02 nM of 0.04 OD450 nm and an OD450 nm at 0.11 nM of 0.04 OD450 nm. In test [2], this substance displayed an OD450 nm at 0.53 nM of 0.04 OD450 nm, an OD450 nm at 2.67 nM of 0.03 OD450 nm, an OD450 nm at 13.3 nM of 0.25 OD450 nm and an OD450 nm at 66.7 nM of 0.26 OD450 nm.

In test [3], SP34 (antibody) returned an EC50 of 1.51 nM, an Emax (OD) of 2.01 OD, an OD450 nm at 0.00128 nM of 0.05 OD450 nm and an OD450 nm at 0.0064 nM of 0.06 OD450 nm. In test [3], this substance gave an OD450 nm at 0.032 nM of 0.09 OD450 nm, an OD450 nm at 0.16 nM of 0.23 OD450 nm, an OD450 nm at 0.8 nM of 0.7 OD450 nm and an OD450 nm at 4 nM of 1.49 OD450 nm. In test [3], this substance came in with an OD450 nm at 20 nM of 2.01 OD450 nm and an OD450 nm at 100 nM of 1.87 OD450 nm. In test [1], this substance gave a half-maximal effective concentration (EC50) of 0.64 nM, an OD450 nm at 0.000853 nM of 0.18 OD450 nm, an OD450 nm at 0.0043 nM of 0.1 OD450 nm and an OD450 nm at 0.02 nM of 0.15 OD450 nm. Also, in test [1], the OD450 nm at 0.11 nM was 0.38 OD450 nm, the OD450 nm at 0.53 nM was 1.45 OD450 nm, the OD450 nm at 2.67 nM is 3.1 OD450 nm and the OD450 nm at 13.3 nM came to 3.29 OD450 nm. The substance also returned an OD450 nm at 66.7 nM in test [1] of 3.23 OD450 nm. Also, in test [2], the half-maximal effective concentration (EC50) is 0.55 nM, the OD450 nm at 0.000853 nM was 0.12 OD450 nm, the OD450 nm at 0.0043 nM is 0.2 OD450 nm and the OD450 nm at 0.02 nM was 0.19 OD450 nm. Moreover, in test [2], the OD450 nm at 0.11 nM was 0.5 OD450 nm, the OD450 nm at 0.53 nM came to 1.83 OD450 nm, the OD450 nm at 2.67 nM came out at 3.41 OD450 nm and the OD450 nm at 13.3 nM worked out at 3.57 OD450 nm. In test [2], this substance showed an OD450 nm at 66.7 nM of 3.55 OD450 nm.

Turning to mouse IgG (antibody), in test [1], the OD450 nm at 0.000853 nM was 0.177 OD450 nm, the OD450 nm at 0.0043 nM came to 0.101 OD450 nm, the OD450 nm at 0.02 nM is 0.08 OD450 nm and the OD450 nm at 0.11 nM was 0.09 OD450 nm. In addition, in test [1], the OD450 nm at 0.53 nM is 0.14 OD450 nm, the OD450 nm at 2.67 nM was 0.07 OD450 nm, the OD450 nm at 13.3 nM stood at 0.1 OD450 nm and the OD450 nm at 66.7 nM turned out to be 0.15 OD450 nm. In test [2], this substance returned an OD450 nm at 0.000853 nM of 0.0698 OD450 nm, an OD450 nm at 0.0043 nM of 0.101 OD450 nm, an OD450 nm at 0.02 nM of 0.07 OD450 nm and an OD450 nm at 0.11 nM of 0.07 OD450 nm. In test [2], this substance showed an OD450 nm at 0.53 nM of 0.06 OD450 nm, an OD450 nm at 2.67 nM of 0.07 OD450 nm, an OD450 nm at 13.3 nM of 0.07 OD450 nm and an OD450 nm at 66.7 nM of 0.08 OD450 nm.
